Measured values as given in paper PMC9482650, “Quantitative fragmentomics allow affinity mapping of interactomes” (Nature Communications, 2022).
One block for each binder: values may come before it.

Experiments:
Assay in all cases: holdup assay
Design in all cases: key: below the threshold = too weak to quantify, mostly under pKd 3.1 to 4
GRIP2_5, Q9C0E4 = biological target: GRIP2_5, Q9C0E4
MPP6, Q9NZW5 = biological target: T1, MPP6, Q9NZW5
T1 sequence (Q9NZW5 125-219, limits assumed, looked up): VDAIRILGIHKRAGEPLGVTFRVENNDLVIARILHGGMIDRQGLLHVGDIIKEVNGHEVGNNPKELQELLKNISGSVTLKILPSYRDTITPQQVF

IL16_1, Q14005 = biological target: IL16_1, Q14005
PCLO, Q9Y6V0 = biological target: T2, PCLO, Q9Y6V0
T2 sequence (Q9Y6V0 4491-4600, limits assumed, looked up): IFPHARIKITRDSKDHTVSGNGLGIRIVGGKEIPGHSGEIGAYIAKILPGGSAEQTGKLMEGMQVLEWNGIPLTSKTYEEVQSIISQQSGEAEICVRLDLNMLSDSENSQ

SHANK1, Q9Y566 = biological target: T3, SHANK1, Q9Y566
T3 sequence (Q9Y566 658-767, limits assumed, looked up): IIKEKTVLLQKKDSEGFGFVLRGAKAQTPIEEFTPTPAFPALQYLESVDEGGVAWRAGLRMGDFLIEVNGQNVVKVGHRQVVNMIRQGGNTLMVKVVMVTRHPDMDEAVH

SIPA1L2, Q9P2F8 = biological target: T4, SIPA1L2, Q9P2F8
T4 sequence (Q9P2F8 945-1036, limits assumed, looked up): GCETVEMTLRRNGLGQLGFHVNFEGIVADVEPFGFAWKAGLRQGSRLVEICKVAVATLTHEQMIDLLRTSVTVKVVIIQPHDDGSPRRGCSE

ARHGAP21, Q5T5U3 = biological target: T5, ARHGAP21, Q5T5U3
T5 sequence (Q5T5U3 45-169, limits assumed, looked up): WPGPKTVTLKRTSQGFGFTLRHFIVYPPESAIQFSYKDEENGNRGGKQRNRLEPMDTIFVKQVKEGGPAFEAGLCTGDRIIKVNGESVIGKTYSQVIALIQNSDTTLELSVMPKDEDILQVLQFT

LNX2_2, Q8N448 = biological target: T6, LNX2_2, Q8N448
T6 sequence (Q8N448 334-432, limits assumed, looked up): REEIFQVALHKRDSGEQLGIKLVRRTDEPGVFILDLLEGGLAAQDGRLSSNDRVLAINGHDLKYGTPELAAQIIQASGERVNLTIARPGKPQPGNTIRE

Inadl_8, Q8NI35 = biological target: Inadl_8, Q8NI35
PICK1, Q9NRD5 = biological target: PICK1, Q9NRD5
MAST1, Q9Y2H9 = biological target: MAST1, Q9Y2H9
LDB3, O75112 = biological target: LDB3, O75112
DLG5_1, Q8TDM6 = biological target: DLG5_1, Q8TDM6
NHERF3_3, Q5T2W1 = biological target: T7, NHERF3_3, Q5T2W1
T7 sequence (Q5T2W1 238-333, limits assumed, looked up): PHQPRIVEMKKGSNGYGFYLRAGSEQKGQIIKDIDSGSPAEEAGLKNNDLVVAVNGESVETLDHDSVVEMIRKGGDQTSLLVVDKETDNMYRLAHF

NHERF2_2, Q15599 = biological target: NHERF2_2, Q15599
DLG3_2, Q92796 = biological target: T8, DLG3_2, Q92796
T8 sequence (Q92796 221-321, limits assumed, looked up): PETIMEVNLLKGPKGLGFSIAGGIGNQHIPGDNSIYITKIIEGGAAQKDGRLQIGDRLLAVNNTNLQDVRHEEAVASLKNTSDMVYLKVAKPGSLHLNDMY

NHERF4_4, Q86UT5 = biological target: NHERF4_4, Q86UT5
IL16_4, Q14005 = biological target: IL16_4, Q14005
PDZRN3_1, Q9UPQ7 = biological target: T9, PDZRN3_1, Q9UPQ7
T9 sequence (Q9UPQ7 244-349, limits assumed, looked up): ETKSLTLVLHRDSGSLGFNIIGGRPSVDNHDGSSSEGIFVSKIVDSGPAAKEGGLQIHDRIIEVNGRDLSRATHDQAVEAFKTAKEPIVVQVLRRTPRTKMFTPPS

GORASP1, Q9BQQ3 = biological target: GORASP1, Q9BQQ3
TJP1_2, Q07157 = biological target: TJP1_2, Q07157
SNX27, Q96L92 = biological target: SNX27, Q96L92
Inadl_2, Q8NI35 = biological target: Inadl_2, Q8NI35
MAST2, Q6P0Q8 = biological target: MAST2, Q6P0Q8
PTPN3, P26045 = biological target: PTPN3, P26045
RHPN1, Q8TCX5 = biological target: T10, RHPN1, Q8TCX5
T10 sequence (Q8TCX5 508-602, limits assumed, looked up): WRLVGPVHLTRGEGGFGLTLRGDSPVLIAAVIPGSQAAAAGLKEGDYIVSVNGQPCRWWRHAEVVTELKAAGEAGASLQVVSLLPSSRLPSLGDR

ARHGEF11, O15085 = biological target: T11, ARHGEF11, O15085
T11 sequence (O15085 42-136, limits assumed, looked up): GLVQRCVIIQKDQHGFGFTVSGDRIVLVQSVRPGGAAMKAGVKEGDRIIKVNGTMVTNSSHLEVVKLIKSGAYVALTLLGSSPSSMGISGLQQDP

[1] = plain residues with an end cap or a label only (N-terminal biotin on a linker: ttds)
[2] = plain residues with an end cap or a label only (N-terminal biotin on a linker: ado-ado)

Chain of Inadl_8, Q8NI35 (Q8NI35 1425-1530): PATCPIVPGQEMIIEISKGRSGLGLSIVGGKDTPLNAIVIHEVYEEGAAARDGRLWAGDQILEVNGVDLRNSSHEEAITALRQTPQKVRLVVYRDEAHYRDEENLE
Chain of TJP1_2, Q07157 (Q07157 181-274): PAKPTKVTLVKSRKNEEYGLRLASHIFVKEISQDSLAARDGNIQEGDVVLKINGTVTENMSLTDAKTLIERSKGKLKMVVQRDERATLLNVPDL
Chain of IL16_1, Q14005 (Q14005 210-306): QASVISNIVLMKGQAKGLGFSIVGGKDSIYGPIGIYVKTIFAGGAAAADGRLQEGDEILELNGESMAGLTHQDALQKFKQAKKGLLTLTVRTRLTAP
Chain of GORASP1, Q9BQQ3 (Q9BQQ3 1-208): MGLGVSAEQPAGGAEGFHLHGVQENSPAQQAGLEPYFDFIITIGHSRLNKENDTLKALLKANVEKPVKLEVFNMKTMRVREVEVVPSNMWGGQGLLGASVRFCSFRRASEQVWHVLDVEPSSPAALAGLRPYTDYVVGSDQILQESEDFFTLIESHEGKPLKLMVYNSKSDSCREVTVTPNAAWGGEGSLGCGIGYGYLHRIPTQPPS
Chain of PICK1, Q9NRD5 (Q9NRD5 17-115): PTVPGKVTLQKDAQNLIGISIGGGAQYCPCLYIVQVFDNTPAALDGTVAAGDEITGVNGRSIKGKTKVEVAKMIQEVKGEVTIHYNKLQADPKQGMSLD
Chain of MAST2, Q6P0Q8 (Q6P0Q8 1099-1202): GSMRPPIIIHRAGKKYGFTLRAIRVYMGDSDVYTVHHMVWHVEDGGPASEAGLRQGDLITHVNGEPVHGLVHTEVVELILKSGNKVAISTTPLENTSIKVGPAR
Chain of IL16_4, Q14005 (Q14005 1229-1329): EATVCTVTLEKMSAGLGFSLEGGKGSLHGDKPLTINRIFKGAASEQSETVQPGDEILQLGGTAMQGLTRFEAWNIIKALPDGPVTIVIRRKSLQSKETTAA
Chain of LDB3, O75112 (O75112 1-94): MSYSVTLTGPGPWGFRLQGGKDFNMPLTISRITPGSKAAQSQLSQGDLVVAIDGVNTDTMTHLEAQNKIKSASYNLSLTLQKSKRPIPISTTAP
Chain of MAST1, Q9Y2H9 (Q9Y2H9 962-1065): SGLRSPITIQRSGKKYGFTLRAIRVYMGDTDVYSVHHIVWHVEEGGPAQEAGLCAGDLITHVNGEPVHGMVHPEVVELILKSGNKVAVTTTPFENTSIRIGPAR
Chain of PTPN3, P26045 (P26045 505-587): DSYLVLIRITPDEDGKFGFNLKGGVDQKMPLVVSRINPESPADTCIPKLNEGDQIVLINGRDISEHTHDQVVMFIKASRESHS
Chain of DLG5_1, Q8TDM6 (Q8TDM6 617-713): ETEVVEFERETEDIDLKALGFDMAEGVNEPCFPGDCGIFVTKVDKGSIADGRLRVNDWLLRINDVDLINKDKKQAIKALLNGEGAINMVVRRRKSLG
Chain of NHERF4_4, Q86UT5 (Q86UT5 464-550): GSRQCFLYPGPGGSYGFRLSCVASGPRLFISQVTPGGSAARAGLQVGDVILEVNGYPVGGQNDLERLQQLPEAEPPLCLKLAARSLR
Chain of Inadl_2, Q8NI35 (Q8NI35 238-335): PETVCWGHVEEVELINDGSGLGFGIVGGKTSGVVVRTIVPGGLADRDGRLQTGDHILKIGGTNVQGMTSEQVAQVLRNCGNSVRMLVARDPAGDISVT
Chain of NHERF2_2, Q15599 (Q15599 142-238): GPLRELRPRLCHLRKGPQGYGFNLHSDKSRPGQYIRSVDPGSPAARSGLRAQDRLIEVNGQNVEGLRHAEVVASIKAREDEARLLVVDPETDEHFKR
Chain of GRIP2_5, Q9C0E4 (Q9C0E4 544-642): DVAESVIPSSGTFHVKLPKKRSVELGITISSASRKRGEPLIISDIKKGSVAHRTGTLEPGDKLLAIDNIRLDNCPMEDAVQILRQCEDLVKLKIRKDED

Binder: LDSQIQETSI [MAP4, P27816]
pKd (GRIP2_5, Q9C0E4; [1]): below the threshold | pKd (MPP6, Q9NZW5; [1]): below the threshold | pKd (IL16_1, Q14005; [1]): 3.49 | pKd (PCLO, Q9Y6V0; [1]): below the threshold | pKd (SHANK1, Q9Y566; [1]): 4.42 | pKd (SIPA1L2, Q9P2F8; [1]): below the threshold | pKd (ARHGAP21, Q5T5U3; [1]): below the threshold | pKd (LNX2_2, Q8N448; [1]): below the threshold | pKd (Inadl_8, Q8NI35; [1]): below the threshold | pKd (PICK1, Q9NRD5; [1]): below the threshold | pKd (MAST1, Q9Y2H9; [1]): 4.56 | pKd (LDB3, O75112; [1]): below the threshold | pKd (DLG5_1, Q8TDM6; [1]): below the threshold | pKd (NHERF3_3, Q5T2W1; [1]): below the threshold | pKd (NHERF2_2, Q15599; [1]): 4.48 | pKd (DLG3_2, Q92796; [1]): 3.93 | pKd (NHERF4_4, Q86UT5; [1]): below the threshold | pKd (IL16_4, Q14005; [1]): below the threshold | pKd (PDZRN3_1, Q9UPQ7; [1]): 4.55 | pKd (GORASP1, Q9BQQ3; [1]): below the threshold | pKd (TJP1_2, Q07157; [1]): below the threshold | pKd (SNX27, Q96L92; [1]): 5.73 | pKd (Inadl_2, Q8NI35; [1]): below the threshold | pKd (MAST2, Q6P0Q8; [1]): 5.97 | pKd (PTPN3, P26045; [1]): 4.92 | pKd (RHPN1, Q8TCX5; [1]): 4.94 | pKd (ARHGEF11, O15085; [1]): below the threshold

Binder: PKRPFVESNV [TANC2, Q9HCD6]
pKd (GRIP2_5, Q9C0E4; [1]): below the threshold | pKd (MPP6, Q9NZW5; [1]): below the threshold | pKd (IL16_1, Q14005; [1]): 4.66 | pKd (PCLO, Q9Y6V0; [1]): below the threshold | pKd (SHANK1, Q9Y566; [1]): below the threshold | pKd (SIPA1L2, Q9P2F8; [1]): below the threshold | pKd (ARHGAP21, Q5T5U3; [1]): below the threshold | pKd (LNX2_2, Q8N448; [1]): below the threshold | pKd (Inadl_8, Q8NI35; [1]): 3.68 | pKd (PICK1, Q9NRD5; [1]): below the threshold | pKd (MAST1, Q9Y2H9; [1]): below the threshold | pKd (LDB3, O75112; [1]): below the threshold | pKd (DLG5_1, Q8TDM6; [1]): below the threshold | pKd (NHERF3_3, Q5T2W1; [1]): below the threshold | pKd (NHERF2_2, Q15599; [1]): below the threshold | pKd (DLG3_2, Q92796; [1]): 4.54 | pKd (NHERF4_4, Q86UT5; [1]): below the threshold | pKd (IL16_4, Q14005; [1]): below the threshold | pKd (PDZRN3_1, Q9UPQ7; [1]): below the threshold | pKd (GORASP1, Q9BQQ3; [1]): below the threshold | pKd (TJP1_2, Q07157; [1]): below the threshold | pKd (SNX27, Q96L92; [1]): 4.8 | pKd (Inadl_2, Q8NI35; [1]): below the threshold | pKd (MAST2, Q6P0Q8; [1]): 4.84 | pKd (PTPN3, P26045; [1]): 4.34 | pKd (RHPN1, Q8TCX5; [1]): 4.09 | pKd (ARHGEF11, O15085; [1]): below the threshold

Next, values leading:

pKd (GRIP2_5, Q9C0E4; [1]): below the threshold | pKd (MPP6, Q9NZW5; [1]): below the threshold | pKd (IL16_1, Q14005; [1]): 3.68 | pKd (PCLO, Q9Y6V0; [1]): below the threshold | pKd (SHANK1, Q9Y566; [1]): 3.57 | pKd (SIPA1L2, Q9P2F8; [1]): below the threshold | pKd (ARHGAP21, Q5T5U3; [1]): below the threshold | pKd (LNX2_2, Q8N448; [1]): below the threshold | pKd (Inadl_8, Q8NI35; [1]): 4 | pKd (PICK1, Q9NRD5; [1]): below the threshold | pKd (MAST1, Q9Y2H9; [1]): 4.51 | pKd (LDB3, O75112; [1]): below the threshold | pKd (DLG5_1, Q8TDM6; [1]): below the threshold | pKd (NHERF3_3, Q5T2W1; [1]): below the threshold | pKd (NHERF2_2, Q15599; [1]): below the threshold | pKd (DLG3_2, Q92796; [1]): below the threshold | pKd (NHERF4_4, Q86UT5; [1]): below the threshold | pKd (IL16_4, Q14005; [1]): below the threshold | pKd (PDZRN3_1, Q9UPQ7; [1]): 3.53 | pKd (GORASP1, Q9BQQ3; [1]): below the threshold | pKd (TJP1_2, Q07157; [1]): below the threshold | pKd (SNX27, Q96L92; [1]): 5.11 | pKd (Inadl_2, Q8NI35; [1]): below the threshold | pKd (MAST2, Q6P0Q8; [1]): 5.14 | pKd (PTPN3, P26045; [1]): 3.78 | pKd (RHPN1, Q8TCX5; [1]): 3.82 | pKd (ARHGEF11, O15085; [1]): below the threshold
Binder: VNKVWDQSSV [CIT, O14578]

pKd (GRIP2_5, Q9C0E4; [2]): below the threshold | pKd (MPP6, Q9NZW5; [2]): below the threshold | pKd (IL16_1, Q14005; [2]): 4.48 | pKd (PCLO, Q9Y6V0; [2]): below the threshold | pKd (SHANK1, Q9Y566; [2]): 3.87 | pKd (SIPA1L2, Q9P2F8; [2]): below the threshold | pKd (ARHGAP21, Q5T5U3; [2]): 3.9 | pKd (LNX2_2, Q8N448; [2]): below the threshold | pKd (Inadl_8, Q8NI35; [2]): below the threshold | pKd (PICK1, Q9NRD5; [2]): 4.14 | pKd (MAST1, Q9Y2H9; [2]): 4.66 | pKd (LDB3, O75112; [2]): below the threshold | pKd (DLG5_1, Q8TDM6; [2]): below the threshold | pKd (NHERF3_3, Q5T2W1; [2]): below the threshold | pKd (NHERF2_2, Q15599; [2]): 4.67 | pKd (DLG3_2, Q92796; [2]): below the threshold | pKd (NHERF4_4, Q86UT5; [2]): below the threshold | pKd (IL16_4, Q14005; [2]): 3.74 | pKd (PDZRN3_1, Q9UPQ7; [2]): 4.72 | pKd (GORASP1, Q9BQQ3; [2]): below the threshold | pKd (TJP1_2, Q07157; [2]): below the threshold | pKd (SNX27, Q96L92; [2]): 5.59 | pKd (Inadl_2, Q8NI35; [2]): below the threshold | pKd (MAST2, Q6P0Q8; [2]): 5.32 | pKd (PTPN3, P26045; [2]): 5.22 | pKd (RHPN1, Q8TCX5; [2]): 4.61 | pKd (ARHGEF11, O15085; [2]): 3.8
Binder: GFGEERESIL [KIDINS220, Q9ULH0]
